Legend:
[1] = molecular target: human μ-opioid receptor (μOR), wild type, with HA signal sequence at the N terminus and LgBiT at the C terminus (modified pfastbac1) (human) (UniProt P35372); test: split reporter (BiFC, NanoBiT); NanoBiT on Sf9 membranes co-expressing μOR-LgBiT, Gαi1, Gβ1-SmBiT and Gγ2, in PBS pH 7.4; dose-response of fentanyl, 15 min at room temperature, luminescence; normalized to DAMGO
[2] = molecular target: human μ-opioid receptor (μOR), wild type, with HA signal sequence at the N terminus and LgBiT at the C terminus (modified pfastbac1) (human) (UniProt P35372); test: split reporter (BiFC, NanoBiT); NanoBiT on Sf9 membranes co-expressing μOR-LgBiT, Gαi1, Gβ1-SmBiT and Gγ2, in PBS pH 7.4; dose-response of FD-3, 15 min at room temperature, luminescence; normalized to DAMGO

Gi protein complex (Gαi1, Gβ1 with SmBiT at the C terminus, Gγ2), sequence (P63096 whole entry): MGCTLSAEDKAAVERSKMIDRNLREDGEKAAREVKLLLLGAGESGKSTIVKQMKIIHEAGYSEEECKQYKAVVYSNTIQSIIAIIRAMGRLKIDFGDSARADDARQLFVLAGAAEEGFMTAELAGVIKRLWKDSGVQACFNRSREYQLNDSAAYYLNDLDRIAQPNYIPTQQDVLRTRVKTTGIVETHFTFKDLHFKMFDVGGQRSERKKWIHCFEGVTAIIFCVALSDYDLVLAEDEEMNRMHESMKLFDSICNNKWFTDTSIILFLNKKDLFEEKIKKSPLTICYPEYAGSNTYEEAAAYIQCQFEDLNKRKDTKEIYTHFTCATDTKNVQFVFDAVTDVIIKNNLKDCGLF
Gi protein complex (Gαi1, Gβ1 with SmBiT at the C terminus, Gγ2), sequence (P62873 whole entry): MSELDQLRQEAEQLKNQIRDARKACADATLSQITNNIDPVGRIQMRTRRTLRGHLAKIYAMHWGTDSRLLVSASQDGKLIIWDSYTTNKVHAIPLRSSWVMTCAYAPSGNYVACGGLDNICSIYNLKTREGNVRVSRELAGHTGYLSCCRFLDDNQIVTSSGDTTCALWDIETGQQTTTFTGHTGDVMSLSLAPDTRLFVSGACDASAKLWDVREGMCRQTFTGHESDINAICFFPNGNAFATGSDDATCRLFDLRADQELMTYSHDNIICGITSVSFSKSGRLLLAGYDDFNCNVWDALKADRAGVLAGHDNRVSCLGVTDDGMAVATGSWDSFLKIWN
Gi protein complex (Gαi1, Gβ1 with SmBiT at the C terminus, Gγ2), sequence (P59768 whole entry): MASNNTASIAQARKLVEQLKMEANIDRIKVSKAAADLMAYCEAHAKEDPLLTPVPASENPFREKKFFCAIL

Which maximal Gi coupling (normalized to DAMGO) [1] does the source give for “Gi protein complex (Gαi1, Gβ1 with SmBiT at the C terminus, Gγ2) (from UniProt P63096 1-354; P62873 1-340; P59768 1-71)” here?
The maximal Gi coupling (normalized to DAMGO) was > 55%.

What about the maximal coupling efficiency relative to morphine [2] of the same substance?
Its maximal coupling efficiency relative to morphine is 67%.

From publication PMC7176292
